Results from publication doi:10.1101/511345 (bioRxiv, 2019).

Columns and labels:
[1] = biological target: the molecule itself; test: crystal structure
[2] = biological target: the molecule itself; test: cryo-EM structure

Protein | stoichiometry N [1] | stoichiometry N [2]
Qs IMEF cargo protein, purified alone and crystallised (natural protein) MKEELDAFHQIFTTTKEAIERFMAMLTPVIENAEDDHERLYYHHIYEEEEQRLSRLDVLIPLIEKFQDETDEGLFSPSNNAFNRLLQELNLEKFGLHNFIEHVDLALFSFTDEERQTLLKELRKDAYEGYQYVKEKLAEINARFDHDYADPHAHHDEHRDHLADMPSAGSSHEEVQPVAHKKKGFTVGSLIQ | 2 | –
Quasibacillus thermotolerans (Qs) IMEF encapsulin capsid protein, assembled T = 4 shell (natural protein) MNKSQLYPDSPLTDQDFNQLDQTVIEAARRQLVGRRFIELYGPLGRGMQSVFNDIFMESHEAKMDFQGSFDTEVESSRRVNYTIPMLYKDFVLYWRDLEQSKALDIPIDFSVAANAARDVAFLEDQMIFHGSKEFDIPGLMNVKGRLTHLIGNWYESGNAFQDIVEARNKLLEMNHNGPYALVLSPELYSLLHRVHKDTNVLEIEHVRELITAGVFQSPVLKGKSGVIVNTGRNNLDLAISEDFETAYLGEEGMNHPFRVYETVVLRIKRPAAICTLIDPEE | – | 240
